Test results taken from doi:10.1101/2024.04.26.591398 (2024).

Target: T1, FITC-casein (FITC label (FITC-casein))
T1 chain: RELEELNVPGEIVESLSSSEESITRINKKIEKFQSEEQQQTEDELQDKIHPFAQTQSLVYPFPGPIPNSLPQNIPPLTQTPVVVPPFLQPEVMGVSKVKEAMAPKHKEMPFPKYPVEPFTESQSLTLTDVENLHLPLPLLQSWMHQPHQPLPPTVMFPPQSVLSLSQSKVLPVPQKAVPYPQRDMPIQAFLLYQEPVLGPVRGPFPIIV
Assay: FP; competition: Ydj1 dissociating FITC-casein from Hsp104 R366E, ATPγS

- IC50: ~20 µM
B1: Ydj1 (natural protein)
chain: MVKETKFYDILGVPVTATDVEIKKAYRKCALKYHPDKNPSEEAAEKFKEASAAYEILSDPEKRDIYDQFGEDGLSGAGGAGGFPGGGFGFGDDIFSQFFGAGGAQRPRGPQRGKDIKHEISASLEELYKGRTAKLALNKQILCKECEGRGGKKGAVKKCTSCNGQGIKFVTRQMGPMIQRFQTECDVCHGTGDIIDPKDRCKSCNGKKVENERKILEVHVEPGMKDGQRIVFKGEADQAPDVIPGDVVFIVSERPHKSFKRDGDDLVYEAEIDLLTAIAGGEFALEHVSGDWLKVGIVPGEVIAPGMRKVIEGKGMPIPKYGGYGNLIIKFTIKFPENHFTSEENLKKLEEILPPRIVPAIPKKATVDECVLADFDPAKYNRTRASRGGANYDSDEEEQGGEGVQCASQ
